Assay results as given in publication PMC10495264 (Nature Cell Biology, 2023).

How the values were obtained:
yeast cells = assay: Drop spot growth assays on rapamycin and/or cerulenin plates; assay type: cell-based, Saccharomyces cerevisiae; settings: low / sublethal doses combined
Description: Yeast cells (Saccharomyces cerevisiae) were cultured in liquid SC medium (1.7 g l^−1 yeast nitrogen base (cat. no. 1545, CONDA), 5 g l^−1 ammonium sulfate (cat. no. 4808211, MP Biomedicals), 20 g l^−1 glucose (cat. no. 1422, AppliChem), 2 g l^−1 amino acid dropout –His (D9520, US Biological) and 35 mg l^−1 histidine (A1341, AppliChem) at 30 °C to the exponential growth phase, unless otherwise stated in the figure legends. All yeast strains used in this study are listed in Supplementary Table 1.

[1] = target: TORC1 containing the N-terminally GFP-tagged Tor1 subunit (Saccharomyces cerevisiae) (UniProt P35169); assay: MST; GFP–Tor1-containing TORC1 (7.5 nM) as fluorescent target, 16 twofold dilutions of Acc1 (highest 80 nM) or Fas1 (highest 20 nM); 50 mM HEPES NaOH pH 7.5, 150 mM NaCl; 30 °C; Monolith NT.115
[2] = system: intracellular TAG and palmitate (C16:0) levels; assay: TAG and palmitate (C16:0) measurements by LC-HRMS; assay type: cell-based, human; settings: ED Fig. 5t; compared with BSA
Description: The intracellular levels of TAGs and palmitate (C16:0) were determined using liquid chromatography-high resolution mass spectrometry-based analysis. Briefly, cells were seeded in 10-cm dishes and treated as described in the ‘Mammalian cell culture treatments’ section. The cells were scraped in medium and collected by centrifugation (400g, 3 min). The pellets were then washed three times with 1 ml ice-cold PBS, snap frozen in liquid nitrogen and kept at −80 °C until further processing.
The samples were vortexed for 10 s immediately after the addition of the extraction buffer and then incubated for 30 min on an orbital shaker at 4 °C. The proteins were pelleted by centrifugation (10 min, 21,000g, 4 °C) and the supernatants were transferred to a clean 2-ml tube. […]
The lipid pellets were resuspended in 200 µl ultra-performance liquid chromatography (UPLC)-grade acetonitrile:isopropanol 70:30 (vol/vol). […] In both cases, the analysed mass range was in the range of m/z 150–1,500. […]
All samples were analysed in a randomized run order. […] For measurements of intracellular TAG abundance (Extended Data Fig. 5r), the sum of all values corresponding to the peak areas for the different individual TAGs was calculated for each sample.

TORC1 [3] = target: T1, TORC1 (Saccharomyces cerevisiae, UniProt P35169); assay: MST binding affinity assays with fluorescent TORC1 (GFP–Tor1); settings: for Kd: purified yeast proteins, GFP–Tor1-containing TORC1 7.5 nM, 30 °C, mean ± s.d., n = 3, read-out: Kd (binding to TORC1, MST); for Fraction bound transformed (MST, TORC1 target): Fig. 6d,e
T1 construct: made in house; host or cells: S. cerevisiae strain NIC005 ([RL170-2c] LEU2:GFP-TOR1)
Description: The MST experiments were performed using a Monolith NT.115 (Nanotemper Technologies). Purification of TORC1 containing the N-terminally GFP-tagged Tor1 subunit was carried out as described previously. For the protein–protein interaction experiments, GFP–Tor1-containing TORC1 (7.5 nM) was mixed with a series of twofold dilutions (a total of 16 samples) of Acc1 (highest concentration, 80 nM) or Fas1 (highest concentration, 20 nM) purified from yeast through TAP-tag immuno-enrichment with rabbit IgG-coated magnetic beads and subsequent TEV cleavage in elution buffer (50 mM HEPES NaOH pH 7.5 and 150 mM NaCl) for 1 h at 18 °C. The samples were loaded into Monolith NT.115 capillaries and MST measurements were performed using 80% laser power and medium MST power setting at 30 °C. For the small molecule–protein interaction experiments, GFP–Tor1-containing TORC1 (7.5 nM) was mixed with a series of twofold dilutions (a total of 16 samples) of Mal-CoA (M4263, Sigma-Aldrich; highest concentration, 5 mM) dissolved in 50 mM HEPES pH 7.5. The samples were loaded into Monolith NT.115 capillaries and MST measurements were performed using 80% laser power and medium MST power setting at 30 °C. The experiments were performed in triplicate and data were fitted using the Kd model of the MO.Affinity Analysis software (Nanotemper Technologies). The signal-to-noise ratio represents the response amplitude divided by the noise of the measurement. The Kd value was obtained by plotting the bound fraction against the log-transformed ligand concentration.

TORC1 [4] = target: T1, TORC1; assay: as above
[5] = titrated protein 4.88281e-9 M, Fig. 6d,e
[6] = titrated protein 3.90625e-8 M, Fig. 6d,e
[7] = titrated protein 1.5625e-7 M, Fig. 6d,e

T1 sequence (P35169 whole entry): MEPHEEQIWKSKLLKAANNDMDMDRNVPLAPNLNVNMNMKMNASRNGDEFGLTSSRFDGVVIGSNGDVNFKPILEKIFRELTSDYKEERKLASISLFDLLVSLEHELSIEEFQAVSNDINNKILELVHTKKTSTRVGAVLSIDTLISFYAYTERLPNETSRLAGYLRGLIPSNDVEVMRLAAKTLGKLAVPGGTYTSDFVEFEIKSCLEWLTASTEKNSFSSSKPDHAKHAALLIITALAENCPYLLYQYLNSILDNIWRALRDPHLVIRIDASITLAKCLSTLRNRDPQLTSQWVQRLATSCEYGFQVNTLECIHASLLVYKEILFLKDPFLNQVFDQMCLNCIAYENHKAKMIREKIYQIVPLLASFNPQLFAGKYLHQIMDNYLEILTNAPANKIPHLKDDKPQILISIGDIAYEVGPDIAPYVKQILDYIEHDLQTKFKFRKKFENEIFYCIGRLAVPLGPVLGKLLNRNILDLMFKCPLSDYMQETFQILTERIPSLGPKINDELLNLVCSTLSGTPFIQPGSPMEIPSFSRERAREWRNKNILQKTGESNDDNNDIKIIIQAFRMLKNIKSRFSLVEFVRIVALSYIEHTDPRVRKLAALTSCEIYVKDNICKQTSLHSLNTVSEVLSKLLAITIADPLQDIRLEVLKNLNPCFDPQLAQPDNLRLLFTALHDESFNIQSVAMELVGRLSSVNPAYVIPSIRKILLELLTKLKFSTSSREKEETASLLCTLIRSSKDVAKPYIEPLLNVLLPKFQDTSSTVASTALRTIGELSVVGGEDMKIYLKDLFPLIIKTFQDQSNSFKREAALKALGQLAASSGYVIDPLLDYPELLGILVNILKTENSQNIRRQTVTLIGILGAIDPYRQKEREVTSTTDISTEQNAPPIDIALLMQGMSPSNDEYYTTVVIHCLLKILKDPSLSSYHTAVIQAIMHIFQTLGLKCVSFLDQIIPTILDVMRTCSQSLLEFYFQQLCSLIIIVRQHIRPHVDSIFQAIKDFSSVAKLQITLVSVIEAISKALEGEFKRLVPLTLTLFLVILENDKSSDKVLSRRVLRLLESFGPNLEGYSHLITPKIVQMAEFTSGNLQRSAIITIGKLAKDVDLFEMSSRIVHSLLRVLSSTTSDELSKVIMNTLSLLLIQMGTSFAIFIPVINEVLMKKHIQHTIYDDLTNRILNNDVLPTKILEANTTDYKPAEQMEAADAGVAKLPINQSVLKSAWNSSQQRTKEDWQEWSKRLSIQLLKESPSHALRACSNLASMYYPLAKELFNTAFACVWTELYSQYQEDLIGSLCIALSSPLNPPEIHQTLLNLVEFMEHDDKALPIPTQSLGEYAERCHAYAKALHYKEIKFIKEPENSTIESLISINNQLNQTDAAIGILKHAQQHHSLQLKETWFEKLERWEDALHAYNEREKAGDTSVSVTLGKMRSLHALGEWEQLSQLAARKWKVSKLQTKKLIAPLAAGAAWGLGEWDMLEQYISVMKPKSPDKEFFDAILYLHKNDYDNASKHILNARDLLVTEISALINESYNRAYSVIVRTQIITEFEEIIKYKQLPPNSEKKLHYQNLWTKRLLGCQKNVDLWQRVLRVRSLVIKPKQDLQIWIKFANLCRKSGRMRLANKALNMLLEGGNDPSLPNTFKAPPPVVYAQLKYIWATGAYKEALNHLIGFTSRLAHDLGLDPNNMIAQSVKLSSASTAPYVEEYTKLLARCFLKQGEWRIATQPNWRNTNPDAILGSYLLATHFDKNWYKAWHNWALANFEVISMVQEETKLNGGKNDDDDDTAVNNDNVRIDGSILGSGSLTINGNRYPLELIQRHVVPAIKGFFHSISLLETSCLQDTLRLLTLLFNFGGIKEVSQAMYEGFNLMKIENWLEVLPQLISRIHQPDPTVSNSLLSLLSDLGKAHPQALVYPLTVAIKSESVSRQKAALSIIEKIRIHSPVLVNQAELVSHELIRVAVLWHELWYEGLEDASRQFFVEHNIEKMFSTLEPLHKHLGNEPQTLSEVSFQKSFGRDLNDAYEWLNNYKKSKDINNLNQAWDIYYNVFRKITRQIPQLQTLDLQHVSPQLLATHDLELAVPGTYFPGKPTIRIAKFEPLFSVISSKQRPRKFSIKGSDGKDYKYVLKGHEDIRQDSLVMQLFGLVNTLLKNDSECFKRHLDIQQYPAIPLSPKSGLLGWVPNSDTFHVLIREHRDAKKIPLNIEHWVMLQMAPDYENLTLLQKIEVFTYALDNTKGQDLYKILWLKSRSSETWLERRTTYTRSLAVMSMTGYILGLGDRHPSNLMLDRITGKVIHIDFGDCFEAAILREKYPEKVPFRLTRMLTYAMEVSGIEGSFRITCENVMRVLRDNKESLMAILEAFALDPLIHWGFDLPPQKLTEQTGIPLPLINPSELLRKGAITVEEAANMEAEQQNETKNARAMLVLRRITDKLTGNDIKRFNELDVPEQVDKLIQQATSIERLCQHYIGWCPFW
T1 sequence (Q08921 whole entry partner): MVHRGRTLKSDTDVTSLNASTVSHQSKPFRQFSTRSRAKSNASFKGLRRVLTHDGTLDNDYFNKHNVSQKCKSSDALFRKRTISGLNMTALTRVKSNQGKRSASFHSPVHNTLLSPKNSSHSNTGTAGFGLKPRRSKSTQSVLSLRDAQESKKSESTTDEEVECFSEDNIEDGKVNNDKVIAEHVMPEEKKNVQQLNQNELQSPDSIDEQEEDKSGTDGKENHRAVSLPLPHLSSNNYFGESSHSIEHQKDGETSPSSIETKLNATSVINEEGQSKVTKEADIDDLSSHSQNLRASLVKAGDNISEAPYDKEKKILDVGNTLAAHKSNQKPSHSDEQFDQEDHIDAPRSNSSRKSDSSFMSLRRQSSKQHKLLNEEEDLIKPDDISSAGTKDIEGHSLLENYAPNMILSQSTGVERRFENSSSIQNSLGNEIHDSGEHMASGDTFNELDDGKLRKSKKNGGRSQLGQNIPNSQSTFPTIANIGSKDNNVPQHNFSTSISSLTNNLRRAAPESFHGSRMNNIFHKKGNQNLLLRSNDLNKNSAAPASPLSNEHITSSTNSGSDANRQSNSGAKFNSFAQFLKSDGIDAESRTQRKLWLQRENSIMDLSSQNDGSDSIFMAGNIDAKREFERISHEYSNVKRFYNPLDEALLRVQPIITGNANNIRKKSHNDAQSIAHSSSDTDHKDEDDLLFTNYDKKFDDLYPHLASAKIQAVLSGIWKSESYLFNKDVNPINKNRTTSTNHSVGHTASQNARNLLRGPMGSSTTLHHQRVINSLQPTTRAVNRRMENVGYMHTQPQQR
T1 sequence (P38873 whole entry partner): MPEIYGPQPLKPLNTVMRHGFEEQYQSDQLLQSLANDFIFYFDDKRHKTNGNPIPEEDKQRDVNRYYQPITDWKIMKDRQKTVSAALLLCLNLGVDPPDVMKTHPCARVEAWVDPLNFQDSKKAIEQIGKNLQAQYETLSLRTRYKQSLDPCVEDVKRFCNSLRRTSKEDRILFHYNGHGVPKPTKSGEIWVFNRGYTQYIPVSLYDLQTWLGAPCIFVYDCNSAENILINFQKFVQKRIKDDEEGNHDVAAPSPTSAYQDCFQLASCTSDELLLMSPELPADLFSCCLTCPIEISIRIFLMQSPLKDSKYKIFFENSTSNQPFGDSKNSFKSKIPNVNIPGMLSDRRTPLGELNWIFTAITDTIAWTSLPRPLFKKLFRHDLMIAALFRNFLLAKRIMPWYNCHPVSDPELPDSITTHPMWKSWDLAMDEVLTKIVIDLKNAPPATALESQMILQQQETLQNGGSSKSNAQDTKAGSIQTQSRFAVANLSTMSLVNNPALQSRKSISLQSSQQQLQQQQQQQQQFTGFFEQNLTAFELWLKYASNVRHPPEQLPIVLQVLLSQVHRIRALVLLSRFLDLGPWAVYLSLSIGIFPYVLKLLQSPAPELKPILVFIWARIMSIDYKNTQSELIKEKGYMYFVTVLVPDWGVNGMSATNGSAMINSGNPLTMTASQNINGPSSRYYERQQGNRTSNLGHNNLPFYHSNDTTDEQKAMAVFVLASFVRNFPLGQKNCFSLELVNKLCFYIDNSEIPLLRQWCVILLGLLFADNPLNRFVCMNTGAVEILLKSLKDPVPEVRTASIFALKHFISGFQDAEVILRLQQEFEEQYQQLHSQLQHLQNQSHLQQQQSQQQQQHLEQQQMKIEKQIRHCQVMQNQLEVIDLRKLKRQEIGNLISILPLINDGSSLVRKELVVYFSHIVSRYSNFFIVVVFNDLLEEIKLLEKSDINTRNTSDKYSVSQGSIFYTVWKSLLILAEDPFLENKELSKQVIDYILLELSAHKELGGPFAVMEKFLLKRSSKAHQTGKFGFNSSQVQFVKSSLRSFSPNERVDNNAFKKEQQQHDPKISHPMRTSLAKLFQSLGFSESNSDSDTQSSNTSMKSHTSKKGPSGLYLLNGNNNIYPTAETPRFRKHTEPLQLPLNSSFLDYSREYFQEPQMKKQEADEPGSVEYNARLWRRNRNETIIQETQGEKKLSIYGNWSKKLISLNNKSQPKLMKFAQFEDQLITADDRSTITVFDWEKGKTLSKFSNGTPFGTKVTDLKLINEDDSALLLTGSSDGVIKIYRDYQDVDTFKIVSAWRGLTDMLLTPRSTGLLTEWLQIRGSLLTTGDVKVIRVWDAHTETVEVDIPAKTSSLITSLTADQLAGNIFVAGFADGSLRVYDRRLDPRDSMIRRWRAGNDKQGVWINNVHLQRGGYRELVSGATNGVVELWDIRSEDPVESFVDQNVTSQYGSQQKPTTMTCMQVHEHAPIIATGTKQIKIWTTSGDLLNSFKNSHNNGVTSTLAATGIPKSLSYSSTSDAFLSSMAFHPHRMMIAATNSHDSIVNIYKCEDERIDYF
T1 sequence (P41318 whole entry partner): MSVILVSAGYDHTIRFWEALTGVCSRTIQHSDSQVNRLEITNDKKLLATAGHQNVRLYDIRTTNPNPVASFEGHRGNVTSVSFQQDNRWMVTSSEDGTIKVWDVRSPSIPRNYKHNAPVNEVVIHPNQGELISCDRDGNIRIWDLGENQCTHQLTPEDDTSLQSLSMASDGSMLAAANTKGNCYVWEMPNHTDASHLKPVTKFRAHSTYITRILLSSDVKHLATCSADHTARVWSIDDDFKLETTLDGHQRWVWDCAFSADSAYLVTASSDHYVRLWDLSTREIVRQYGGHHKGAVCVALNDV

Molecule | Kd [1] [nM] | Kd (TORC1 [3]) [nM] | Fraction bound transformed (MST, TORC1 target) (TORC1 [3]; titrated protein 2.44141e-9 M) | Fraction bound transformed (MST, TORC1 target) (TORC1 [3]; titrated protein 9.76563e-9 M) | Fraction bound transformed (MST, TORC1 target) (TORC1 [3]; titrated protein 1.95313e-8 M) | Fraction bound transformed (MST, TORC1 target) (TORC1 [3]; titrated protein 7.8125e-8 M) | Fraction bound transformed (MST, TORC1 target) (TORC1 [3]; titrated protein 3.125e-7 M) | Fraction bound transformed (MST, TORC1 target) (TORC1 [3]; titrated protein 6.25e-7 M) | Fraction bound transformed (MST, TORC1 target) (TORC1 [3]; titrated protein 1.25e-6 M) | Fraction bound transformed (MST, TORC1 target) (TORC1 [3]; titrated protein 2.5e-6 M) | Fraction bound transformed (MST, TORC1 target) (TORC1 [3]; titrated protein 5e-6 M) | Fraction bound transformed (MST, TORC1 target) (TORC1 [3]; titrated protein 1e-5 M) | Fraction bound transformed (MST, TORC1 target) (TORC1 [3]; titrated protein 2e-5 M) | Fraction bound transformed (MST, TORC1 target) (TORC1 [4]; [5]) | Fraction bound transformed (MST, TORC1 target) (TORC1 [4]; [6]) | Fraction bound transformed (MST, TORC1 target) (TORC1 [4]; [7]) | other results
CO[C@H]1C[C@@H]2CC[C@@H](C)[C@@](O)(O2)C(=O)C(=O)N2CCCC[C@H]2C(=O)O[C@H]([C@H](C)C[C@@H]2CC[C@@H](O)[C@H](OC)C2)CC(=O)[C@H](C)/C=C(\C)[C@@H](O)[C@@H](OC)C(=O)[C@H](C)C[C@H](C)/C=C/C=C/C=C/1C [rapamycin] |  |  |  |  |  |  |  |  |  |  |  |  |  |  |  |  | combined effect of rapamycin and cerulenin on yeast growth (yeast cells): additive effect
Fas1 purified from yeast (from UniProt P07149 1-2051) (enzyme) | 23.7 |  |  |  |  |  |  |  |  |  |  |  |  |  |  |  | 
BSA-C16:0 |  |  |  |  |  |  |  |  |  |  |  |  |  |  |  |  | C16:0 (peak area), Mean [2]: 531779
Acc1 purified from yeast (from UniProt Q00955 1-2233) (enzyme) | 49.1 |  |  |  |  |  |  |  |  |  |  |  |  |  |  |  | 
Fas1: yeast FA synthase subunit purified from yeast through TAP-tag immuno-enrichment |  | 23.7 ± 15.4 | 0.1633 | 0.4832 | 0.1917 | 0.6873 | 0.978 | 1.128 | 1.25 | 1.151 | 0.8443 | 0.9239 | 0.8697 | 0.2698 | 0.7564 | 0.5063 | Fraction bound transformed (MST, TORC1 target) (TORC1 [4]; titrated protein 1.2207E-09 M, Fig. 6e): -0.03697; Fraction bound transformed (MST, TORC1 target) (TORC1 [4]; titrated protein 6.1035E-10 M, Fig. 6e): -0.1692
Acc1: yeast acetyl-CoA carboxylase purified from yeast through TAP-tag immuno-enrichment |  | 49.1 ± 28.3 | 0.1107 | -0.03249 | 0.3896 | 0.8094 | 0.5572 | 0.7617 | 0.8055 | 0.9274 | 1.054 | 1.011 | 0.9376 | 0.03811 | 0.4481 | 0.735 | Fraction bound transformed (MST, TORC1 target) (TORC1 [3]; titrated protein 4e-5 M): 1.262; Fraction bound transformed (MST, TORC1 target) (TORC1 [3]; titrated protein 8e-5 M): 1.2067
